Data reported in patent US20250352661A1 (MYTHIC THERAPEUTICS, published 2025).

T1: LRRC15 on LRRC15 positive cell lines SAOS2 and G292 (UniProt Q8TF66 22-581, limits assumed)
T1 construct: whole, on cells
T1 sequence (looked up): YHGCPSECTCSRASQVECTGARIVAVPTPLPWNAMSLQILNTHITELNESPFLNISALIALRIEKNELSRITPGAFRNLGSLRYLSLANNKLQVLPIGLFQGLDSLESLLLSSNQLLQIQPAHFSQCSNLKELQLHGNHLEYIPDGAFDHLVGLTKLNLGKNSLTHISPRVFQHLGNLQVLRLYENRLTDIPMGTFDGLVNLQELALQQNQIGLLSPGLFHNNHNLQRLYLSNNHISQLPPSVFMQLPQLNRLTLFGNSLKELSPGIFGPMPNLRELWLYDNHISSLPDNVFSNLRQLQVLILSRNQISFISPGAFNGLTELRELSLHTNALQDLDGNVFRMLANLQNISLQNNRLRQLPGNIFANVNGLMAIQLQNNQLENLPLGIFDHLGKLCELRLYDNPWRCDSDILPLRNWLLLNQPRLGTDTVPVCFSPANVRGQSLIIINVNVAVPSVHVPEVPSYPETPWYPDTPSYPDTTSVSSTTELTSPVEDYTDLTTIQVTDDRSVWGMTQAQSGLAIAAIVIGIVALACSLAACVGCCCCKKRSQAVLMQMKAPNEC

T2: Human LRRC15 Protein, His Tag (Acro Biosystems) (human, UniProt Q8TF66 22-538, limits assumed)
T2 sequence (looked up): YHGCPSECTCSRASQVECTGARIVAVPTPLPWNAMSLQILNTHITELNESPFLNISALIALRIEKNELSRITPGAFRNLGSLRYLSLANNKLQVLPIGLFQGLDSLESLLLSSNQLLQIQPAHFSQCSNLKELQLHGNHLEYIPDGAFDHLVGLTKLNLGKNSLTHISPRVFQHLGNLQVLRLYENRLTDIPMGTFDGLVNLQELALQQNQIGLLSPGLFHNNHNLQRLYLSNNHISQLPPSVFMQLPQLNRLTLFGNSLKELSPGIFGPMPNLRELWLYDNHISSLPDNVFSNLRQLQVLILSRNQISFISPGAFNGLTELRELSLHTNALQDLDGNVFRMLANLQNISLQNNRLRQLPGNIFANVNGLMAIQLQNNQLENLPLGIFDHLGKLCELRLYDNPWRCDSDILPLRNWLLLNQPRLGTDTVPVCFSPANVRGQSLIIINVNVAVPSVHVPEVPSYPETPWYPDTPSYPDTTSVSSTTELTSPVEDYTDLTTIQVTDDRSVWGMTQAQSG


How the values were obtained:
[1] = target: T1, LRRC15 on LRRC15 positive cell lines …; test: cell binding on G292 cells (LRRC15 positive), pH 7.4; design: unit not given here
[2] = target: T1, LRRC15 on LRRC15 positive cell lines …; test: cell binding on SAOS2 cells (LRRC15 positive), pH 7.4; design: unit not given here
[3] = target: T2, Human LRRC15 Protein, His Tag (Acro …); test: BLI; dissociation pH 7.4 black, pH 5.4 grey [2/2); D00007 FIG. 1E (2/2]
Description: For each individual plot, antigen binding proteins were captured on anti-human Fc biosensors and associated with LRRC15 at pH 7.4. Dissociation was at pH 7.4 (black) or pH 5.4 (grey). Major X-axis ticks=100 seconds, with left dashed vertical line=0 seconds. Major Y-axis ticks=0.5 nm and octet plots are shown MYT5712 and MYT6080-MYT6121.
Multiple LRRC15-binding monoclonal antibodies have been described in the literature and can be used as a template for engineering pH-dependent binding. We selected discovery RabMAb clone 15G7 (rabbit VH SEQ ID NO: 378, rabbit VL SEQ ID NO: 451; humanized VH SEQ ID NO: 382, humanized VL SEQ ID NO: 455) as a LRRC15-binding monoclonal antibody for pH-engineering via histidine scanning. […] To generate pH-dependent sequence variants, individual amino acid residues within the heavy chain CDRs were systematically substituted with a histidine (or alanine if H was already present in a given position; e.g., MYT6099), one at a time (rabbit, MYT6080-6121). Desirable mutations were transferred to a humanized framework (humanized, MYT 8387-8411). After allowing for four days of protein expression, cell culture supernatants were collected, quantified by SDS-PAGE analysis, and the pH dependence of the variant was evaluated using biolayer interferometry (BLI) on an Octet RED 96e instrument. Briefly, cell culture supernatants were diluted based on qualitative expression level of the variant determined by visual examination of SDS-PAGE gels, 5 μL of cell culture supernatant was diluted into 195 μL of 1×PBST, pH 7.4 for high expressors, 25 μL of cell culture supernatant was diluted into 175 μL of 1×PBST, pH 7.4 for medium expressors and 100 μL of cell culture supernatant was diluted into 100 μL of 1×PBST, pH 7.4 for low expressors for loading onto the sensor tips.

Row | Binder | Affinity [1] | Affinity [2] | binding result [3]
1 | MYT8391 (antibody, V domains shown, Humanized 15G7 variant (HC descriptor V106H); also called hu 15G7 HC his variant; hu 15G7 HC his scan variant) VH: EVQLVESGGGLVQPGGSLRLSCTASGLDFRRTNYICWVRQAPGKGLEWVGCIYIADVVHYYASWAKGRFTFSRDTSKNTVYLQMNSLRAEDTAVYYCARGADGGFHYGMDLWGQGTLVTVSS VL: EIVMTQSPSTLSASVGDRVIITCQASQSIGNYLSWYQQKPGKAPKRLIYSASTLPSGVPSRFSGSGSGAEFTLTISSLQPDDFATYYCQNNYWLAGYGHPFGQGTKLTVL | 0.336 | 0.483 | 
2 | MYT8416 (antibody, V domains shown, Humanized 15G7 variant (LC descriptor W109H); also called hu 15G7 LC his variant) VH: EVQLVESGGGLVQPGGSLRLSCTASGLDFRRTNYICWVRQAPGKGLEWVGCIYIADVVHYYASWAKGRFTFSRDTSKNTVYLQMNSLRAEDTAVYYCARGADGGFVYGMDLWGQGTLVTVSS VL: EIVMTQSPSTLSASVGDRVIITCQASQSIGNYLSWYQQKPGKAPKRLIYSASTLPSGVPSRFSGSGSGAEFTLTISSLQPDDFATYYCQNNYHLAGYGHPFGQGTKLTVL | 1.37 | 1.15 | 
3 | MYT6111 (antibody, V domains shown, chimeric rabbit 15G7 variant (rabbit variable domains, human constant regions); also called 15G7 VH A100H) VH: QEQLEESGGDLVKPGASLTLTCTASGLDFRRTNYICWVRQAPGKGLEWIGCIYIADVVHYYASWAKGRFTFSKTSSTTVTLQMTSLTAADTATYFCARGHDGGFVYGMDLWGPGTLVTVSS VL: DVVMTQTPASVSEPVGGTVTIKCQASQSIGNYLSWYQQKPGQRPKRLIYSASTLPSGVPSRFKGAGSGTEFTLTISDLESADAATYYCQNNYWLAGYGHPFGGGTEVVVK |  |  | binds
4 | MYT6116 (antibody, V domains shown, chimeric rabbit 15G7 variant (rabbit variable domains, human constant regions); also called 15G7 VH V105H) VH: QEQLEESGGDLVKPGASLTLTCTASGLDFRRTNYICWVRQAPGKGLEWIGCIYIADVVHYYASWAKGRFTFSKTSSTTVTLQMTSLTAADTATYFCARGADGGFHYGMDLWGPGTLVTVSS VL: DVVMTQTPASVSEPVGGTVTIKCQASQSIGNYLSWYQQKPGQRPKRLIYSASTLPSGVPSRFKGAGSGTEFTLTISDLESADAATYYCQNNYWLAGYGHPFGGGTEVVVK |  |  | binds
5 | MYT6114 (antibody, V domains shown, chimeric rabbit 15G7 variant (rabbit variable domains, human constant regions); also called 15G7 VH G103H) VH: QEQLEESGGDLVKPGASLTLTCTASGLDFRRTNYICWVRQAPGKGLEWIGCIYIADVVHYYASWAKGRFTFSKTSSTTVTLQMTSLTAADTATYFCARGADGHFVYGMDLWGPGTLVTVSS VL: DVVMTQTPASVSEPVGGTVTIKCQASQSIGNYLSWYQQKPGQRPKRLIYSASTLPSGVPSRFKGAGSGTEFTLTISDLESADAATYYCQNNYWLAGYGHPFGGGTEVVVK |  |  | binds
6 | MYT6112 (antibody, V domains shown, chimeric rabbit 15G7 variant (rabbit variable domains, human constant regions); also called 15G7 VH D101H) VH: QEQLEESGGDLVKPGASLTLTCTASGLDFRRTNYICWVRQAPGKGLEWIGCIYIADVVHYYASWAKGRFTFSKTSSTTVTLQMTSLTAADTATYFCARGAHGGFVYGMDLWGPGTLVTVSS VL: DVVMTQTPASVSEPVGGTVTIKCQASQSIGNYLSWYQQKPGQRPKRLIYSASTLPSGVPSRFKGAGSGTEFTLTISDLESADAATYYCQNNYWLAGYGHPFGGGTEVVVK |  |  | binds
7 | MYT6113 (antibody, V domains shown, chimeric rabbit 15G7 variant (rabbit variable domains, human constant regions); also called 15G7 VH G102H) VH: QEQLEESGGDLVKPGASLTLTCTASGLDFRRTNYICWVRQAPGKGLEWIGCIYIADVVHYYASWAKGRFTFSKTSSTTVTLQMTSLTAADTATYFCARGADHGFVYGMDLWGPGTLVTVSS VL: DVVMTQTPASVSEPVGGTVTIKCQASQSIGNYLSWYQQKPGQRPKRLIYSASTLPSGVPSRFKGAGSGTEFTLTISDLESADAATYYCQNNYWLAGYGHPFGGGTEVVVK |  |  | binds
8 | MYT6118 (antibody, V domains shown, chimeric rabbit 15G7 variant (rabbit variable domains, human constant regions); also called 15G7 VH G107H) VH: QEQLEESGGDLVKPGASLTLTCTASGLDFRRTNYICWVRQAPGKGLEWIGCIYIADVVHYYASWAKGRFTFSKTSSTTVTLQMTSLTAADTATYFCARGADGGFVYHMDLWGPGTLVTVSS VL: DVVMTQTPASVSEPVGGTVTIKCQASQSIGNYLSWYQQKPGQRPKRLIYSASTLPSGVPSRFKGAGSGTEFTLTISDLESADAATYYCQNNYWLAGYGHPFGGGTEVVVK |  |  | no binding (tested: 50 nM LRRC15)

The remaining lines, values ahead:

Row | Affinity [1] | Affinity [2] | binding result [3] | Binder
9 | 1.11 | 0.754 |  | MYT8415 (antibody, V domains shown, Humanized 15G7 variant (LC descriptor Y108H); also called hu 15G7 LC his variant) VH: EVQLVESGGGLVQPGGSLRLSCTASGLDFRRTNYICWVRQAPGKGLEWVGCIYIADVVHYYASWAKGRFTFSRDTSKNTVYLQMNSLRAEDTAVYYCARGADGGFVYGMDLWGQGTLVTVSS VL: EIVMTQSPSTLSASVGDRVIITCQASQSIGNYLSWYQQKPGKAPKRLIYSASTLPSGVPSRFSGSGSGAEFTLTISSLQPDDFATYYCQNNHWLAGYGHPFGQGTKLTVL
10 |  |  | binds | MYT6115 (antibody, V domains shown, chimeric rabbit 15G7 variant (rabbit variable domains, human constant regions); also called 15G7 VH F104H) VH: QEQLEESGGDLVKPGASLTLTCTASGLDFRRTNYICWVRQAPGKGLEWIGCIYIADVVHYYASWAKGRFTFSKTSSTTVTLQMTSLTAADTATYFCARGADGGHVYGMDLWGPGTLVTVSS VL: DVVMTQTPASVSEPVGGTVTIKCQASQSIGNYLSWYQQKPGQRPKRLIYSASTLPSGVPSRFKGAGSGTEFTLTISDLESADAATYYCQNNYWLAGYGHPFGGGTEVVVK
11 |  |  | binds | MYT6121 (antibody, V domains shown, chimeric rabbit 15G7 variant (rabbit variable domains, human constant regions); also called 15G7 VH L110H) VH: QEQLEESGGDLVKPGASLTLTCTASGLDFRRTNYICWVRQAPGKGLEWIGCIYIADVVHYYASWAKGRFTFSKTSSTTVTLQMTSLTAADTATYFCARGADGGFVYGMDHWGPGTLVTVSS VL: DVVMTQTPASVSEPVGGTVTIKCQASQSIGNYLSWYQQKPGQRPKRLIYSASTLPSGVPSRFKGAGSGTEFTLTISDLESADAATYYCQNNYWLAGYGHPFGGGTEVVVK
12 |  |  | binds | MYT6117 (antibody, V domains shown, chimeric rabbit 15G7 variant (rabbit variable domains, human constant regions); also called 15G7 VH Y106H) VH: QEQLEESGGDLVKPGASLTLTCTASGLDFRRTNYICWVRQAPGKGLEWIGCIYIADVVHYYASWAKGRFTFSKTSSTTVTLQMTSLTAADTATYFCARGADGGFVHGMDLWGPGTLVTVSS VL: DVVMTQTPASVSEPVGGTVTIKCQASQSIGNYLSWYQQKPGQRPKRLIYSASTLPSGVPSRFKGAGSGTEFTLTISDLESADAATYYCQNNYWLAGYGHPFGGGTEVVVK
13 |  |  | binds | MYT6120 (antibody, V domains shown, chimeric rabbit 15G7 variant (rabbit variable domains, human constant regions); also called 15G7 VH D109H) VH: QEQLEESGGDLVKPGASLTLTCTASGLDFRRTNYICWVRQAPGKGLEWIGCIYIADVVHYYASWAKGRFTFSKTSSTTVTLQMTSLTAADTATYFCARGADGGFVYGMHLWGPGTLVTVSS VL: DVVMTQTPASVSEPVGGTVTIKCQASQSIGNYLSWYQQKPGQRPKRLIYSASTLPSGVPSRFKGAGSGTEFTLTISDLESADAATYYCQNNYWLAGYGHPFGGGTEVVVK
14 |  |  | binds | MYT6119 (antibody, V domains shown, chimeric rabbit 15G7 variant (rabbit variable domains, human constant regions); also called 15G7 VH M108H) VH: QEQLEESGGDLVKPGASLTLTCTASGLDFRRTNYICWVRQAPGKGLEWIGCIYIADVVHYYASWAKGRFTFSKTSSTTVTLQMTSLTAADTATYFCARGADGGFVYGHDLWGPGTLVTVSS VL: DVVMTQTPASVSEPVGGTVTIKCQASQSIGNYLSWYQQKPGQRPKRLIYSASTLPSGVPSRFKGAGSGTEFTLTISDLESADAATYYCQNNYWLAGYGHPFGGGTEVVVK
